Measurements taken from the supplement of paper PMC10567573.

B1: RPAIN (parent)
chain: ISEYEKSLQFDEKCLSIMLAEWEA
B2: PCMTD2 (parent)
chain: FFIRTSDSFDKFDFCEPSFVTGNC

Variants of: B1
Assay: protein stability index of a GFP-peptide fusion (GPS, HEK-293T) (PSI 1-6); higher = more stable
Conditions: c terminus: a fixed tail appended
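Further: lentivirally expressed fusions sorted by FACS into six bins by GFP to DsRed ratio, PSI derived from sequencing read proportions per bin multiplied by bin number.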

Protein stability index, by site and new letter:
W22: V 1.52; L 2.15; M 1.78; P 3.93; C 1.5; N 4.3; A 2.18; K 4.47; Q 3.08; F 2.79; T 2.03; H 3.98; S 2.11; R 3.37; E 4.21; D 3.88; Y 1.69; G 1.72; I 1.68
A20: Y 2.08; E 1.98; C 1.77; D 1.91; M 2.49; I 1.48; H 1.64; K 1.64; T 2.25; R 1.25; S 1.88; V 1.8; P 3.02; G 2.01; L 1.4; Q 2.19; F 1.54; N 1.44
F10: W 2.88; Q 3.51; S 3.08; H 3.33; P 3.43; V 2.45; C 2.99; T 3.01; R 2.96; I 2.93; G 2.81; M 2.45; E 3.47; D 3.15; N 2.9; K 3.53; A 3.21; L 2.07; Y 1.97
L15: H 3.17; F 2.21; C 2.66; G 3.62; Q 3.73; E 4.41; S 3.92; M 2.2; Y 3.38; V 2.09; N 3.92; R 4.1; T 3.73; I 3.52; D 4.09; K 4.06; W 2.86; A 3.74; P 4.02
M18: H 2.41; K 2.19; D 3.26; G 3.33; E 1.84; Q 2.75; A 1.86; Y 2.39; N 2.13; T 2.79; L 2.18; R 1.93; C 1.81; F 2.5; P 4.27; V 1.51; I 1.4; S 2.56; W 2.52
K13: H 1.73; E 1.71; G 1.8; T 1.44; S 2.25; N 1.19; Q 1.47; F 1.91; D 1.76; R 2.05; P 2.72; M 1.34; A 2.1; Y 3.37; V 1.7
I17: Q 2; F 1.8; E 2.16; L 1.85; M 1.97; K 2.08; S 2.08; D 2.47; Y 1.2; H 2.51; N 2.48; P 3.53; R 2.15; T 2.12; A 1.6; V 2.38; G 2.8; C 1.63; W 1.47
L19: K 3.58; V 2.64; D 4.34; Q 3.6; E 4.02; W 2.5; M 2.12; Y 2.88; S 3.4; G 3.04; P 4.37; N 3.73; C 2.79; H 3.27; R 2.39; I 2.77; F 3.03; A 2.59; T 3.18
Q9: F 2.88; Y 1.58; A 1.76; M 2.03; L 1.46; H 1.85; T 1.86; V 1.25; C 1.64; D 2.02; P 1.95; K 2.23; E 1.78; N 2.32; R 2.08; S 1.7; I 1.96
S16: N 1.37; L 2.1; D 2.08; W 1.86; E 1.96; P 2.85; F 2.09; A 2.32; I 2.84; V 1.88; Y 2.83; C 1.91; T 2.1; Q 2.11; H 2.56; G 2.34; M 1.49; K 2.17; R 2.62
C14: I 2.16; G 2.27; A 1.9; T 1.71; Y 1.16; H 2.81; D 2.16; L 1.44; M 1.58; R 2.32; F 2.38; P 3.42; S 1.89; K 1.59; Q 2.24; N 1.96; W 1.35; V 1.75
L8: E 3.45; Y 2.27; I 2.79; W 2.9; K 2.47; D 3.69; N 2.71; Q 3.1; F 1.9; V 2.22; T 3.08; H 2.65; C 1.96; P 2.97; G 3.44; M 2.29; R 2.38; S 2.68
E23: G 4.39; R 1.85; M 2.36; H 2.59; I 2.4; K 2.53; Y 1.61; D 1.62; S 2.66; W 2.83; A 3.07; P 1.65; T 1.76; V 3.22; L 1.83; Q 2.06; N 2.14; C 1.87; F 2.53
D11: H 1.68; K 1.95; G 2.15; P 1.99; N 2.45; R 1.77; S 2.29; L 3.63; A 2.17; T 1.87
E21: N 2.38; M 1.9; R 3.58; I 3.31; G 1.37; A 2.12; W 2.81; S 2.31; T 3.61; D 2.27; P 2.73; K 1.47; Y 1.93
A24: M 3.31; R 1.73; D 2.5; H 2.49; K 2.27; G 2.11; L 1.59; V 1.91; Q 2.54; S 1.72; N 2.32; E 1.87; Y 1.25; I 1.96; C 1.99; T 2; P 2.49; F 3.13; W 1.59
E12: W 1.85; K 1.75; I 1.67; A 2.34; M 1.66; F 1.99; P 1.76; H 2.02; Q 1.98; V 1.26; N 2.47; G 2.27; C 1.9; D 2.17; T 1.67; R 2.33; S 1.92; Y 1.33

Variants of: B2
Assay: as above
Conditions: c terminus: a fixed tail appended

Protein stability index: each site, then its substitutions
F1: H 2.19; V 2.15; S 2.31; W 2.04; N 2.4; C 2.93; I 1.81; Q 1.87; R 2.42; Y 2.39; L 2.4; A 1.82; D 2.41; M 2.32; G 2.28; P 2.6; E 1.97; T 1.8; K 2.4
F2: T 1.76; H 1.89; P 2.13; E 2.15; G 2.41; I 2.55; V 3.17; A 2.1; Q 2.06; D 2.71; N 2.35; K 2.06; C 1.92; L 3.25; S 2.01; R 1.65; M 1.81
